How the values were obtained:
[1] = biological target: T1, human CACNG1 nanodisc (Homo sapiens, UniProt Q06432); test: Biacore binding kinetics of anti-CACNG1 monoclonal antibodies to human CACNG1 nanodisc, antigen capture format; details: 25° C., 1:1 binding model
T1 construct: made in house
Procedure: Equilibrium dissociation constants (KD values) for nanodisc embedded human CACNG1 expressed with a C-terminal PADRE-Flag-His tag (human CACNG1 nanodisc) binding to purified anti-hCACNG1 antibodies were determined using a real-time surface plasmon resonance biosensor technology with a Biacore T200 instrument. The CM5 Biacore sensor surface was derivatized by amine coupling with a monoclonal mouse anti-His antibody (Cytiva; Marlborough, MA). All Biacore binding studies were performed in a buffer composed of 0.01M HEPES, 0.15M NaCl, 1 mM CaCl2), 0.5 mM MgCl2, pH 7.4 (HBS-N++ running buffer). Different concentrations of anti-hCACNG1 antibodies (ranging from 300 nM to 12 nM in 5-fold serial dilutions) prepared in HBS-N++ running buffer were injected over the captured human CACNG1 nanodisc at a flow rate of 30 μL/minute. Antibody association was monitored for 2 minutes while dissociation was monitored in HBS-N++ running buffer for 5 minutes. At the end of each cycle, the human CACNG1 nanodisc capture surface was regenerated using three 10 second injections of 10 mM Gly pH1.5. All binding kinetics experiments were performed at 25° C.
The specific SPR-Biacore sensorgrams were obtained by a double referencing procedure. The double referencing was performed by first subtracting the signal of each injection over a reference surface (anti-His) from the signal over the experimental surface (anti-His captured human CACNG1 nanodisc) thereby removing contributions from refractive index changes. In addition, running buffer injections were performed to allow subtraction of the signal changes resulting from the dissociation of captured antibodies from the coupled anti-His surface. Kinetic association (ka) and dissociation (kd) rate constants were determined by fitting the real-time sensorgrams to a 1:1 binding model using Scrubber v2.0c curve fitting software. Binding dissociation equilibrium constants (KD) and dissociative half-lives (t1/2) were calculated from the kinetic rate constants as: […]

[2] = test system: CACNG1^Hu/Hu myofibers; test: Antibody binding to single myofibers ex vivo; assay type: cell-based, mouse; details: 100 nM antibody, 30 minutes
Procedure: (§1) Following confirmation of CACNG1 antibody binding to human myotubes, a subset of antibodies was tested for binding to fully mature myofibers ex vivo. Single myofibers were isolated from either wildtype mice, mice that were homozygous for the deletion of CACNG1 (referred to as CACNG1 knockout mice), or mice that were homozygous for the expression of human CACNG1 in place of mouse CACNG1 (referred to as CACNG1^Hu/Hu). The gastrocnemius muscle was removed, collagenase digested, and single myofibers were isolated, washed, and incubated overnight at 37° C. at 5% C02, in DMEM+10% horse serum. Following overnight incubation, single myofibers were incubated with 100 nM of each CACNG1 antibody or an isotype control antibody for 30 minutes. Myofibers were then washed twice in DMEM+10% horse serum, and subsequently incubated with 10 ug/mL of fluorescent-conjugated secondary antibodies for 30 minutes, washed twice in DMEM+10% horse serum, and then fixed with 4% paraformaldehyde (PFA) for 15 minutes at room temperature. Single fibers were then washed twice with PBS, stained with Hoechst for 5 minutes, washed once more with PBS, then transferred to microscope slides, coverslipped, and imaged using a Zeiss LSM 710 confocal microscope.

[3] = test system: wildtype or CACNG1 knockout myofibers; test: Antibody binding to single myofibers ex vivo; assay type: cell-based, mouse; details: 100 nM antibody, 30 minutes
Procedure: as §1

[4] = test system: human myotubes; test: Acetylcholine-induced calcium flux assay in human myotubes (FLIPR); assay type: cell-based; details: antibody 0.01 μM to 1 μM, 1 hour incubation, 20 uM acetylcholine
Procedure: CACNG1 is the γ1 subunit of the skeletal muscle specific L-type calcium channel, (dihydropyridine receptor), though genetic deletion of CACNG1 appears to have no major impact on skeletal muscle function. To determine whether antibodies that bind CACNG1 impact muscle function, a calcium flux assay was performed on human myotubes that were incubated with CACNG1 antibodies to determine whether these antibodies affect acetylcholine-induced calcium release.
Human skeletal myoblasts (Cook Myosite, Inc.) were plated at 10,000 cells/well of a 96-well plate and were differentiated for 7 days into myotubes. On the final day of differentiation, media was replaced with 50 μL of FLIPR calcium 5 dye with probenecid (Invitrogen) and 50 uL of assay buffer (0.1% BSA-DMEM) per well. CACNG1 and isotype control antibodies were serial diluted in assay buffer and added to the cells and incubated at 37° C. in a 5% CO2 incubator for 1 hour prior to the calcium flux assay. Nicardipine hydrochloride (Sigma) was added to untreated wells to serve as a control for calcium channel blockade. After 1 hour, acetylcholine (Sigma) was added at a 20 uM final concentration to induce myotube calcium release, and plates were assayed on a FLIPR Tetra (Molecular Devices, LLC).

T1 sequence (Q06432 whole entry): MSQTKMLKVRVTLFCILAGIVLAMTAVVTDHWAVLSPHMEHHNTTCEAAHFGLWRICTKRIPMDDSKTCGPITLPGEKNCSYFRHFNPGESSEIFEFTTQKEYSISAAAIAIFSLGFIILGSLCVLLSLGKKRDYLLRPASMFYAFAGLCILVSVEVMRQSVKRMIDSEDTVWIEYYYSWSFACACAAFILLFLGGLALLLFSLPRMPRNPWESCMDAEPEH

B1: REGN9909: anti-hCACNG1 antibody, HCVR/LCVR SEQ ID NOs: 146/154 (antibody, V domains shown)
VH: EVQLLESGGGLVQPGGSLRLSCAASGFTFNNYGMSWVRQGPGKGLEWVSSISGSGGTTFYADSVKGRFTISRDNSKNTLYLQMNSLRAEDTAVYYCGKGGYCSSSGCRHYGMDVWGQGTTVTVSS
VL: QSVLTQPPSASGTPGQRVTISCSGSSSNIGNNYIYWYQRLPGTTPKLLIYRNNQRPSGVPDRFSGSKSGTSASLAISGLRSEDEADYYCAAWDDTLSGYVFGTGTKVTVL
B1 was tested, and the “ka” value [1] was 331000 M⁻¹ s⁻¹ and the “kd” value [1] was 0.00137 s⁻¹.

B2: H2aM31941N: anti-hCACNG1 antibody, HCVR/LCVR SEQ ID NOs: 114/122 (antibody, V domains shown)
VH: QVQLVQSGAEVKKPGASVKVSCKASGYAFTTYGITWVRQAPGQGLEWMGWISAYNGNTNYAEKVQGRFTMTTDTSTNTAYMELRSLRSDDTAVYFCARKGHYGSGTYYNPFGFDFWGQGTMVTVSS
VL: EIMLMQSPGTLSLSPGERATLSCRASQSVSSSYLAWYQQKPGQAPRLLIYGASSRATDIPDRFSGSGSGTDFTLTISRLEPEDFAVYFCQQYYGSPWTFGQGTKVEIK
B2 was tested, and the “ka” value [1] was 342000 M⁻¹ s⁻¹, the “kd” value [1] was 0.000406 s⁻¹ and the “binding to CACNG1^Hu/Hu myofibers ex vivo” value [2] was “demonstrated binding to CACNG1^Hu/Hu myofibers ex vivo”. The “binding to wildtype or CACNG1 knockout myofibers” value [3] was “did not bind to wildtype or CACNG1 knockout myofibers”.

B3: REGN10716: anti-hCACNG1 antibody, HCVR/LCVR SEQ ID NOs: 50/58, wildtype hIgG1 (antibody, V domains shown)
VH: QVQLQESGPGLVKPSETLSLTCTVSGDSINNYYWTWLRQPPGKGLEWIGYIYYSGSANYNPSLKSRVTISVDTSKNQFSLKLNSVTAADTAVYYCARGAVKYFRHWGQGTLVTVSS
VL: EIVLTQSPGTLSLSPGERATLSCRASQTINHNNLAWYQQRPGQAPRLLIYGASNRATAIPDRFSGSGSGTDFTLTISRLEPEDFEVYSCQQYGSLPLTFGGGTKVEIK
modifications: hIgG1
B3 was tested, and the “ka” value [1] was 730000 M⁻¹ s⁻¹ and the “kd” value [1] was 8.36e-05 s⁻¹.

B4: REGN10717: anti-hCACNG1 antibody, HCVR/LCVR SEQ ID NOs: 34/42, wildtype hIgG1 (antibody, V domains shown)
VH: QVQLVESGGGVVQPGRSLRLSCAASGFTFSTYGMHWVRQAPGKGLEWVAVIWHDGSDKYYVDSVKGRFSIARDNSKNTLYLQMNSLRVEDTGIYYCARRGIRGTVFDHWGLGTLVTVSS
VL: DIQMTQSPSTLSASVGDRVTLTCRASQSISNKLAWYQQKPGKAPNLLIYKASNLESGVPSRFSGSGSGTEFTLTISSLQPDDFATYYCQQYNSYSWTFGQGTKVEIK
modifications: hIgG1
With B4 the “ka” value [1] was 294000 M⁻¹ s⁻¹ and the “kd” value [1] was 0.0304 s⁻¹.

B5: REGN10715: anti-hCACNG1 antibody, HCVR/LCVR SEQ ID NOs: 18/26, wildtype hIgG1 (antibody, V domains shown)
VH: QVQLQQWGAGLLKPSATLSRTCAVYGGSFSGYYWNWIRQSPGKGLEWIGEILHSGRTNYNPSLKSRVTISVDTSKNQFSLKLTSVTAADTAVYYCAGRIAARHGWFDPWGQGTLVTVSS
VL: DIQMTQSPSSVSTSVGDRVTISCRASQDIRKWLAWYQQKPGKAPKLLIYATSSLQSGVPSRFSGSGSGTDFTLTISSLQPEDFATYFCQQANSFPFTFGQGTKLEIK
modifications: hIgG1
With B5 the “ka” value [1] was 152000 M⁻¹ s⁻¹ and the “kd” value [1] was 0.000301 s⁻¹.

B6: H2aM31944N: anti-hCACNG1 antibody, HCVR/LCVR SEQ ID NOs: 82/90 (antibody, V domains shown)
VH: QVQLVESGGGVVQPGRSLRLSCEASGITFRNYGMHWVRQAPGKGLEWVAVMWYDGSNKYYADSVKGRFTISRDNSKNTVYLQMNSLRAEDTAVYYCARRGHIATAAPFDYWGQGTLVTVSS
VL: DIQMTQSPSSLSASVGDRVTISCRASQSISSYLNWYQQKPGKAPKVLMYAASSLQSGVPSRFSGSGSGTDFTLTISSLQPEDFATYYCQQSYSTPPITFGQGTRLEIK
B6 was tested, and the “ka” value [1] was 231000 M⁻¹ s⁻¹, the “kd” value [1] was 0.00395 s⁻¹ and the “effect on acetylcholine-induced calcium flux” value [4] was “do not inhibit acetylcholine-induced calcium flux”.

B7: REGN7660: anti-hCACNG1 antibody, HCVR/LCVR SEQ ID NOs: 130/138 (antibody, V domains shown)
VH: EVQLVESGGGLVQPGGSLKLSCTASGLTLSDSAMHWVRQASGKGLEWVGRIRNKANRYATEYAASVKGRFTISRDDSKNTAYLQMNSLKTEDTAVYYCTRNWKIFLFDYWGQGTLVTVSS
VL: EIVLTQSPGTLTLSPGERATLSCRASQSVGSKYLAWFQQKRGQAPRLLIYGASSRTSGIPDRISGSGSGTDFTLTISRLEPEDFAVYYCQQYGSSPWTFGQGTKVEIK
With B7 the “ka” value [1] was 1.93e+06 M⁻¹ s⁻¹ and the “kd” value [1] was 0.0243 s⁻¹.

B8: REGN10713: anti-hCACNG1 antibody, HCVR/LCVR SEQ ID NOs: 162/170, wildtype hIgG1 (antibody, V domains shown)
VH: EVQLVESGGNLVQPGGSLRLSCAASGFTFTSHAMNWVRQAPGKGLEWVSVITGRGFDTHYADSVKGRFTISRDISKNTLYLQMNSLRAEDTAVYYCAKGLYDSGNYYIDYWGQGTLVTVSS
VL: QSVLTQPPSVSAAPGQKVTISCSGSSSNIGNNYVSWYQQLPGTAPKLLIYDNNKRPSGIPDRFSGSKSGTSATLGITGLQTGDEADYYCGTWDLSLSFNWVFGGGTKLTVL
modifications: hIgG1
With B8 the “ka” value [1] was 74200 M⁻¹ s⁻¹ and the “kd” value [1] was 4.72e-05 s⁻¹.

Source: patent US20260234660A1, “TREATMENT OF MUSCLE RELATED DISORDERS WITH ANTI-HUMAN CACNG1 ANTIBODIES” (Regeneron Pharmaceuticals, Inc., priority 2023, published 2026)
